# Experimental data as given in the supplement of paper PMC10567573.
# B1: ZNF449 (parent)
# chain: EPHKCPECGKRFLRSSDLYRHQRL
# Variants of: B1
# Assay: protein stability index of a GFP-peptide fusion (GPS, HEK-293T) (PSI 1-6); higher = more stable
# Settings: c terminus: a fixed tail appended
# 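Further: lentivirally expressed fusions sorted by FACS into six bins by GFP to DsRed ratio, PSI derived from sequencing read proportions per bin multiplied by bin number.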
row,Variant,protein stability index
1,EPHKCLECGKRFLRSSDLYRHQRL,3.38
2,EPHKCVECGKRFLRSSDLYRHQRL,3.57
3,EPHKCKECGKRFLRSSDLYRHQRL,3.62
4,EPHKCPEPGKRFLRSSDLYRHQRL,3.51
5,EPHKCPEWGKRFLRSSDLYRHQRL,2.64
6,EPHKCPERGKRFLRSSDLYRHQRL,3.08
7,EPHKCPESGKRFLRSSDLYRHQRL,3.37
8,EPHKCPEFGKRFLRSSDLYRHQRL,2.72
9,EPHKCPECGKRFLRRSDLYRHQRL,3.53
10,EPHKCPECGKRFLRDSDLYRHQRL,3.81
11,EPHKCPECGKRFLRLSDLYRHQRL,3.86
12,EPHKCPECGKRFLRVSDLYRHQRL,3.58
13,EPHKCPECGKRFLRISDLYRHQRL,3.27
14,EPHKCPECGKRFLRHSDLYRHQRL,3.64
15,EPHKCPECGKRFLRQSDLYRHQRL,4.11
16,EPHDCPECGKRFLRSSDLYRHQRL,4.36
17,EPHTCPECGKRFLRSSDLYRHQRL,4.46
18,EPHQCPECGKRFLRSSDLYRHQRL,4.57
19,EPHHCPECGKRFLRSSDLYRHQRL,4.09
20,EPHFCPECGKRFLRSSDLYRHQRL,3.98
21,EPHGCPECGKRFLRSSDLYRHQRL,3.68
22,EPHSCPECGKRFLRSSDLYRHQRL,4.13
23,EPHYCPECGKRFLRSSDLYRHQRL,4.47
24,EPHECPECGKRFLRSSDLYRHQRL,4.73

row,Variant,protein stability index
1,EPHICPECGKRFLRSSDLYRHQRL,4.71
2,EPHVCPECGKRFLRSSDLYRHQRL,4.7
3,EPHKHPECGKRFLRSSDLYRHQRL,3.19
4,EPHKIPECGKRFLRSSDLYRHQRL,3.26
5,EPHKKPECGKRFLRSSDLYRHQRL,4
6,EPHKAPECGKRFLRSSDLYRHQRL,3.69
7,EPHKMPECGKRFLRSSDLYRHQRL,3.06
8,EPHKRPECGKRFLRSSDLYRHQRL,3.14
9,EPHKTPECGKRFLRSSDLYRHQRL,2.79
10,EPHKCPECGKRFLRSSDLYRHQRR,3.84
11,EPHKCPECGKRFLRSSDLYRHQRF,3.23
12,EPHKCPECGKRFLRSSDLYRHQRY,3.31
13,EPHKCPECGKRFLRSSDLYRHQRA,3.83
14,EPHKCPECGKRFLRSSDLYRHQRM,3.94
15,EPHKCPECGKRFLRSSDLYRHQRG,4.52
16,EPHKCPECGKRFLRSSDLYRHQRP,3.85
17,EPHKCPECGKRFLRSSDLYRHQRC,4.97
18,EPHKCPECGKRFLRSVDLYRHQRL,3.81
19,EPHKCPECGKRFLRSQDLYRHQRL,4.27
20,EPHKCPECGKRFLRSNDLYRHQRL,3.7
21,EPHKCPECGKRFLRSHDLYRHQRL,3.55
22,EPHKCPECGKRFLRSWDLYRHQRL,2.66
23,EPHKCPECGKRFLRSLDLYRHQRL,2.72
24,EPHKCPECGKRFLRSADLYRHQRL,3.82

row,Variant,protein stability index
1,EPHKCPECGKRFLRSTDLYRHQRL,3.94
2,EPHKCPECGKRFLRSSDLYAHQRL,4.66
3,EPHKCPECGKRFLRSSDLYKHQRL,4.43
4,EPHKCPECGKRFLRSSDLYSHQRL,4.2
5,EPHKCPECGKRFLRSSDLYPHQRL,2.88
6,EPHKCPECGKRFLRSSDLYTHQRL,4.01
7,EPHKCPECGKRFLRSSDLYEHQRL,4.63
8,EPHKCPECGKRFLRSSDLYHHQRL,4.14
9,EPHKCPECGKRFLRSSDLYMHQRL,3.83
10,EPHKCPECGKRFLRSSDLYVHQRL,4.02
11,EPHKCPQCGKRFLRSSDLYRHQRL,3.62
12,EPHKCPNCGKRFLRSSDLYRHQRL,3.81
13,EPHKCPWCGKRFLRSSDLYRHQRL,4.05
14,EPHKCPKCGKRFLRSSDLYRHQRL,4.14
15,EPHKCPGCGKRFLRSSDLYRHQRL,3.74
16,EPHKCPLCGKRFLRSSDLYRHQRL,3.51
17,EPHKCPMCGKRFLRSSDLYRHQRL,3.65
18,EPHKCPICGKRFLRSSDLYRHQRL,3.3
19,EPHKCPECGKDFLRSSDLYRHQRL,4.27
20,EPHKCPECGKLFLRSSDLYRHQRL,4.57
21,EPHKCPECGKHFLRSSDLYRHQRL,4.07
22,EPHKCPECGKAFLRSSDLYRHQRL,4.71
23,EPHKCPECGKNFLRSSDLYRHQRL,4.24
24,EPHKCPECGKVFLRSSDLYRHQRL,4.57

row,Variant,protein stability index
1,EPHKCPECGKIFLRSSDLYRHQRL,4.63
2,EPHKCPECGKKFLRSSDLYRHQRL,4.16
3,EPHKCPECGKEFLRSSDLYRHQRL,4.84
4,EPHKCPECGKRFLVSSDLYRHQRL,3.2
5,EPHKCPECGKRFLISSDLYRHQRL,2.95
6,EPHKCPECGKRFLTSSDLYRHQRL,4.61
7,EPHKCPECGKRFLGSSDLYRHQRL,2.33
8,EPHKCPECGKRFLCSSDLYRHQRL,3.86
9,EPHKCPECGKRFLNSSDLYRHQRL,4.78
10,EPHKCPECGKRFLKSSDLYRHQRL,4.11
11,EPHKCPECGKRFLYSSDLYRHQRL,3.59
12,EPHKCPECGKRFLASSDLYRHQRL,3.89
13,EPHKCPECGKRFLQSSDLYRHQRL,3.36
14,EPHKCPECGKRFLPSSDLYRHQRL,2.2
15,EPHKCPECGKRFLESSDLYRHQRL,3.84
16,EPHKCPECGKRFLRSSDLYRHNRL,3.36
17,EPHKCPECGKRFLRSSDLYRHERL,3.92
18,EPHKCPECGKRFLRSSDLYRHYRL,3.44
19,EPHKCPECGKRFLRSSDLYRHKRL,3.28
20,EPHKCPECGKRFLRSSDLYRHARL,3.04
21,EPHKCPECGKRFLRSSDLYRHTRL,3.3
22,EPHKCPECGKRFLRSSDLYRHWRL,2.78
